Test results: patent publication US8637043B2, “Compositions useful as ligands for the formyl peptide receptor like 1 receptor and methods of use thereof” (Chemocentryx, Inc., priority 2001, dated 2014)
Where “and” joins values, the source holds several entries; their conditions need not be identical. Equal values may be shown once.

Tests used:
infiltrating cells = experiment: Immunohistochemistry of infiltrating cells in injected skin samples; assay type: in vivo, Rhesus macaques; conditions: injected skin samples of Example 14
Procedure: To better define the identity of the infiltrating cells seen in Example 14 (Table 18), the same samples were analyzed by immunohistochemistry using antibodies specific for different cell types. These antibodies included: CD68 (expressed on macrophages, neutrophils and dendritic cells), MHC II (antigen-presenting cells, e.g. macrophages and dendritic cells), HAM-56 (macrophages), fascin (dendritic cells, endothelial cells and epithelial cells), elastase (neutrophils), cytokeratin (epithelial cells), CD3 (T cells), CD20 (B cells), and CD1a (Langerhans cells).

mononuclear cells = experiment: Mononuclear cell infiltration into the dermis after intradermal injection; assay type: in vivo, Rhesus macaques
Procedure: Different amounts (8, 20, or 60 μg in 100 μl PBS) of different polypeptides (see Table 18) were injected intradermally in Rhesus macaques under anesthesia. Twenty-four and 48 hours later, 6 mm skin punch biopsies were taken using aseptic technique and then bisected. One portion of the biopsy was embedded in OCT compound, flash frozen in liquid nitrogen and stored at −70° C. The other portion was immersed in formalin and embedded in paraffin wax; subsequently, sections cut on a microtome were stained with hematoxylin and eosin and then microscopically examined for cell infiltration into the dermis (Table 18). As a negative control, monkeys were injected with PBS lacking any polypeptides.
Mononuclear cell infiltration was scored on a scale of 0 to 5:0, very mild perivascular mononuclear inflammatory infiltration throughout the dermis; 1, a mild perivascular mononuclear inflammatory infiltrate seen throughout the dermis; 2, a mild/moderate perivascular mononuclear inflammatory infiltrate seen throughout the dermis; 3, a moderate perivascular mononuclear inflammatory infiltrate seen throughout the dermis; 4, an extensive perivascular mononuclear inflammatory infiltrate seen throughout the dermis; 5, a florid perivascular mononuclear inflammatory infiltrate seen throughout the dermis. intermediate scores are indicates, e.g., “⅔” represents a score between 2 and 3.

dendritic cells = experiment: Dendritic cell infiltration after intradermal injection in mice (anti-DEC-205 staining); assay type: in vivo; set-up: key to Dendritic cell infiltration Score / Infiltration Score: 0 = none, 1 = slight, 2 = mild, 3 = moderate, 4 = severe
Text: The following chemokines were obtained from R&D Systems (Minneapolis, Minn.): vMCK-2, mC10, and GM-CSF. The following peptides were synthesized at Phoenix Pharmaceuticals (San Carlos, Calif.): SHAAYtide (SEQ ID NO:6), several […] MODIFIED peptides of SHAAGtide variant (SEQ ID NO:) (i.e. cyclized using the MPR-Cys linked cyclization), control peptide (SEQ ID NO:33, […]Gin Pro Gly lie Lys Arg Arg Trp Leu Met), randomly conjugated to OVA in either a 1:1 or 1:4 ratio (by MBS coupling method), and conjugated to OVA at the C-terminus (C-term, made by the addition of a cysteine), and SHAAGtide variant (SEQ ID NO:3). In three separate experiments, chemokines or peptides (2 μg or 20 μg in PBS) were injected intradermally into BALB/c or C57BI/6 mice (Jackson Laboratory; Bar Harbor, Me.). In each experiment, one mouse received an injection of PBS only as a negative control. At various times after injection, the mice were euthanized, and the area around the injection site was excised and subjected to immunohistology. Frozen sections were stained with anti-DEC-205 antibody (Bio-Whittaker Molecular Applications; Rockland, Me.) that recognizes a dendritic cell-specific molecule (Kraal et al., 1986). A relative staining number on a scale of […] was assigned to each section (0, none; 1, slight; 2, mild; 3, moderate; 4, severe).

B1: mC10: chemokine obtained from R&D Systems (protein, UniProt P27784 22-116, looked up)
C-C motif chemokine 6: GLIQEMEKEDRRYNPPIIHQGFQDTSSDCCFSYATQIPCKRFIYYFPTSGGCIKPGIIFISRRGTQVCADPSDRRVQRCLSTLKQGPRSGNKVIA
For B1, the “identity of infiltrating cells” value (infiltrating cells) was “primarily antigen-presenting cells, including macrophages and dendritic cells, but few neutrophils”, the “Mononuclear cell infiltration score” value (mononuclear cells; 8 μg, 24 hours) was 1 and the “Mononuclear cell infiltration score” value (mononuclear cells; 8 μg, 48 hours) was 0. For the same molecule, the “Mononuclear cell infiltration score” value (mononuclear cells; 20 μg, 24 hours) was 0, the “Mononuclear cell infiltration score” value (mononuclear cells; 20 μg, 48 hours) was 0 and the “Mononuclear cell infiltration score” value (mononuclear cells; 60 μg intradermally, 24 hours, scale 0 (very mild) to 5 (florid)) was 0. The “Mononuclear cell infiltration score” value (mononuclear cells; 60 μg, 48 hours) was 0, the “cell infiltration, in words” value (mononuclear cells; summary of Table 18) was “little to no infiltration” and the “Dendritic cell infiltration Score” value (dendritic cells; BALBc mice, 2 μg, 6 hours) was 2. The “Dendritic cell infiltration Score” value (dendritic cells; BALBc mice, 2 μg, 30 hours) was 3 and 2, the “Dendritic cell infiltration Score” value (dendritic cells; BALBc mice, 20 μg, 6 hours) was 2 and the “Dendritic cell infiltration Score” value (dendritic cells; C57B1/6 mice, 2 μg dose, 6 hours, 0 none, 1 slight, 2 mild, 3 moderate, 4 severe, one animal per line) was 1 (2×) and 2. For the same molecule, the “Dendritic cell infiltration Score” value (dendritic cells; C57B1/6 mice, 2 μg dose, 30 hours) was 2 and 1, the “Dendritic cell infiltration Score” value (dendritic cells; C57B1/6 mice, 2 μg dose, 51 hours) was 0 and the “infiltration of DEC-205-labeled cells” value (dendritic cells; summary of Tables 15, 16 and 17) was “excellent infiltration”.
